# Source: US20240132578A1
# How the values were obtained:
# Assay in all cases: cell-based or functional assay
# [1] = biological target: aMLV envelope protein on pseudovirus (negative control virus)
# [2] = biological target: HIV-1 92UG024 envelope glycoprotein (Env) on pseudovirus (HIV-1)
# [3] = biological target: HIV-1 CMU02 envelope glycoprotein (Env) on pseudovirus (HIV-1)
# [4] = biological target: HIV-1 MGRM-C-026 envelope glycoprotein (Env) on pseudovirus (HIV-1)
# [5] = biological target: HIV-1 JRFL envelope glycoprotein (Env) on pseudovirus (HIV-1)
# [6] = biological target: HIV-1 APV6 envelope glycoprotein (Env) on pseudovirus (HIV-1)
# [7] = biological target: HIV-1 92TH021 envelope glycoprotein (Env) on pseudovirus (HIV-1)
# [8] = biological target: HIV-1 92UG005 envelope glycoprotein (Env) on pseudovirus (HIV-1)
# [9] = biological target: HIV-1 APV13 envelope glycoprotein (Env) on pseudovirus (HIV-1)
# [10] = biological target: HIV-1 MGRM-C-028 envelope glycoprotein (Env) on pseudovirus (HIV-1)
# [11] = biological target: HIV-1 MGRM-AG-005 envelope glycoprotein (Env) on pseudovirus (HIV-1)
# [12] = biological target: HIV-1 MGRM-C-027 envelope glycoprotein (Env) on pseudovirus (HIV-1)
# [13] = biological target: HIV-1 94UG103 envelope glycoprotein (Env) on pseudovirus (HIV-1)
# [14] = biological target: HIV-1 APV17 envelope glycoprotein (Env) on pseudovirus (HIV-1)
# [15] = biological target: HIV-1 MGRM-D-001 envelope glycoprotein (Env) on pseudovirus (HIV-1)
# [16] = biological target: HIV-1 93UG077 envelope glycoprotein (Env) on pseudovirus (HIV-1)
# [17] = biological target: HIV-1 MGRM-A-010 envelope glycoprotein (Env) on pseudovirus (HIV-1)
# [18] = biological target: HIV-1 JRCSF envelope glycoprotein (Env) on pseudovirus (HIV-1) (UniProt P20871)
# [19] = biological target: HIV-1 93IN905 envelope glycoprotein (Env) on pseudovirus (HIV-1)
# [20] = biological target: HIV-1 NL43 envelope glycoprotein (Env) on pseudovirus (HIV-1)
# [21] = biological target: HIV-1 MGRM-D-018 envelope glycoprotein (Env) on pseudovirus (HIV-1)
# [22] = biological target: panel of 22 HIV-1 pseudoviruses of Table 52
# [23] = biological target: HIV-1 Env of isolate MGRM-G-011 (subtype G), on pseudovirus (HIV-1)
# [24] = biological target: HIV-1 Env of isolate MGRM-G-014 (subtype G), on pseudovirus (HIV-1)
# [25] = biological target: HIV-1 Env of isolate MGRM-G-013 (subtype G), on pseudovirus (HIV-1)
# [26] = biological target: HIV-1 Env of isolate MGRM-C-026 (subtype C) (HIV-1)
# [27] = biological target: HIV-1 Env of isolate MGRM-G-024 (subtype G), on pseudovirus (HIV-1)
# [28] = biological target: HIV-1 Env of isolate MGRM-C-022 (subtype C) (HIV-1)
# [29] = biological target: HIV-1 Env of isolate MGRM-G-028 (subtype G), on pseudovirus (HIV-1)
# [30] = biological target: HIV-1 Env of isolate MGRM-C-009 (subtype C) (HIV-1)
# [31] = biological target: HIV-1 Env of isolate MGRM-C-007 (subtype C) (HIV-1)
# [32] = biological target: HIV-1 Env of isolate MGRM-G-015 (subtype G), on pseudovirus (HIV-1)
# [33] = biological target: HIV-1 Env of isolate MGRM-G-004 (subtype G), on pseudovirus (HIV-1)
# [34] = biological target: HIV-1 Env of isolate MGRM-G-025 (subtype G), on pseudovirus (HIV-1)
# [35] = biological target: HIV-1 Env of isolate MGRM-G-009 (subtype G), on pseudovirus (HIV-1)
# [36] = biological target: HIV-1 Env of isolate MGRM-C-017 (subtype C) (HIV-1)
# [37] = biological target: HIV-1 Env of isolate MGRM-C-014 (subtype C) (HIV-1)
# [38] = biological target: HIV-1 Env of isolate 98IN022 (subtype C) (HIV-1)
# [39] = biological target: HIV-1 Env of isolate MGRM-G-016 (subtype G), on pseudovirus (HIV-1)
# [40] = biological target: HIV-1 Env of isolate MGRM-C-002 (subtype C) (HIV-1)
# [41] = biological target: HIV-1 Env of isolate MGRM-C-028 (subtype C) (HIV-1)
# [42] = biological target: HIV-1 Env of isolate MGRM-C-027 (subtype C) (HIV-1)
# [43] = biological target: HIV-1 Env of isolate MGRM-C-001 (subtype C) (HIV-1)
# [44] = biological target: HIV-1 Env of isolate MGRM-C-008 (subtype C) (HIV-1)
# [45] = biological target: HIV-1 Env of isolate MGRM-C-004 (subtype C) (HIV-1)
# [46] = biological target: HIV-1 Env of isolate MGRM-G-006 (subtype G), on pseudovirus (HIV-1)
# [47] = biological target: HIV-1 Env of isolate MGRM-G-027 (subtype G), on pseudovirus (HIV-1)
# [48] = biological target: HIV-1 Env of isolate MGRM-C-013 (subtype C) (HIV-1)
# [49] = biological target: HIV-1 Env of isolate MGRM-C-020 (subtype C) (HIV-1)
# [50] = biological target: HIV-1 Env of isolate MGRM-G-001 (subtype G), on pseudovirus (HIV-1)
# [51] = biological target: HIV-1 Env of isolate MGRM-C-012 (subtype C) (HIV-1)
# [52] = biological target: HIV-1 Env of isolate MGRM-C-010 (subtype C) (HIV-1)
# [53] = biological target: HIV-1 Env of isolate MGRM-C-024 (subtype C) (HIV-1)
# [54] = biological target: HIV-1 Env of isolate MGRM-C-015 (subtype C) (HIV-1)
# [55] = biological target: HIV-1 Env of isolate 93MW959 (subtype C) (HIV-1)
# [56] = biological target: HIV-1 Env of isolate MGRM-C-006 (subtype C) (HIV-1)
# [57] = biological target: aMLV envelope, on pseudovirus (negative control)
# [58] = biological target: HIV-1 Env of isolate MGRM-G-017 (subtype G), on pseudovirus (HIV-1)
# [59] = biological target: HIV-1 Env of isolate MGRM-C-025 (subtype C) (HIV-1)
# [60] = biological target: HIV-1 Env of isolate MGRM-C-005 (subtype C) (HIV-1)
# [61] = biological target: HIV-1 Env of isolate 97ZA012 (subtype C) (HIV-1)
# [62] = biological target: HIV-1 Env of isolate MGRM-C-019 (subtype C) (HIV-1)
# [63] = biological target: HIV-1 Env of isolate MGRM-G-019 (subtype G), on pseudovirus (HIV-1)
# [64] = biological target: HIV-1 Env of isolate MGRM-C-023 (subtype C) (HIV-1)
binder,measurement,setting,value
"PGT-136 (5329_C19; 5366_P21) (antibody, V domains shown) VH: QLQLQESGPGLVKPSETLSLTCTVSGGSMRGTDWGENDFHYGWIRQSSAKGLEWIGSIHWRGRTTHYKTSFRSRATLSIDTSNNRFSLTFSFVTAADTAVYYCARHKYHDIFRVVPVAGWFDPWGQGLLVTVSS VL: EIVMTQSPPTLSVSPGETATLSCRASQNVKNNLAWYQLKPGQAPRLLIFDASSRAGGIPDRFSGSGYGTDFTLTVNSVQSEDFGDYFCQQYEEWPRTFGQGTKVDIK","IC50, pseudovirus neutralization",[1],> 10 µg/mL
same,"IC50, pseudovirus neutralization",[2],0.0915 µg/mL
same,"IC50, pseudovirus neutralization",[3],> 10 µg/mL
same,"IC50, pseudovirus neutralization",[4],0.0065 µg/mL
same,"IC50, pseudovirus neutralization",[5],> 10 µg/mL
same,"IC50, pseudovirus neutralization",[6],> 10 µg/mL
same,"IC50, pseudovirus neutralization",[7],> 10 µg/mL
same,"IC50, pseudovirus neutralization",[8],> 10 µg/mL
same,"IC50, pseudovirus neutralization",[9],> 10 µg/mL
same,"IC50, pseudovirus neutralization",[10],> 10 µg/mL
same,"IC50, pseudovirus neutralization",[11],> 10 µg/mL
same,"IC50, pseudovirus neutralization",[12],> 10 µg/mL
same,"IC50, pseudovirus neutralization",[13],> 10 µg/mL
same,"IC50, pseudovirus neutralization",[14],> 10 µg/mL
same,"IC50, pseudovirus neutralization",[15],> 10 µg/mL
same,"IC50, pseudovirus neutralization",[16],> 10 µg/mL
same,"IC50, pseudovirus neutralization",[17],> 10 µg/mL
same,"IC50, pseudovirus neutralization",[18],> 10 µg/mL
same,"IC50, pseudovirus neutralization",[19],0.0135 µg/mL
same,"IC50, pseudovirus neutralization",[20],> 10 µg/mL
same,"IC50, pseudovirus neutralization",[21],> 10 µg/mL
same,% neutralized,[22],18%
same,"median IC50, pseudovirus neutralization",[22],0.05 µg/mL
"PGT-127 (antibody, V domains shown) VH: QPQLQESGPGLVEASETLSLTCTVSGDSTGRCNYFWGWVRQPPGKGLEWIGSLSHCRSYYNTDWTYHNPSLKSRLTISLDTPKNQVFLRLTSVTAADTATYYCARFGGEVLVYRDWPKPAWVDLWGRGTLVVTVS VL: QSALTQPPSASGSPGQSITISCTGTSNNFVSWYQQYPGKAPKLVIYEVNKRPSGVPDRFSGSKSGSTASLTVSGLQADDEGVYYCSSLVGNWDVIFGGGTKLTVL","IC50 (µg/mL), neutralization of pseudovirus",[23],> 50 µg/mL
same,"IC50 (µg/mL), neutralization of pseudovirus",[24],0.009 µg/mL
same,"IC50 (µg/mL), neutralization of pseudovirus",[25],7.7 µg/mL
same,"IC50 (µg/mL), pseudovirus neutralization",[26],0.014 µg/mL
same,"IC50 (µg/mL), neutralization of pseudovirus",[27],> 50 µg/mL
same,"IC50 (µg/mL), pseudovirus neutralization",[28],0.41 µg/mL
same,"IC50 (µg/mL), neutralization of pseudovirus",[29],0.032 µg/mL
same,"IC50 (µg/mL), pseudovirus neutralization",[30],> 50 µg/mL
same,"IC50 (µg/mL), pseudovirus neutralization",[31],> 50 µg/mL
same,"IC50 (µg/mL), neutralization of pseudovirus",[32],> 50 µg/mL
same,"IC50 (µg/mL), neutralization of pseudovirus",[33],> 50 µg/mL
same,"IC50 (µg/mL), neutralization of pseudovirus",[34],19.3 µg/mL
same,"IC50 (µg/mL), neutralization of pseudovirus",[35],> 50 µg/mL
same,"IC50 (µg/mL), pseudovirus neutralization",[36],3.4 µg/mL
same,"IC50 (µg/mL), pseudovirus neutralization",[37],> 50 µg/mL
same,"IC50 (µg/mL), pseudovirus neutralization",[38],19.2 µg/mL
same,"IC50 (µg/mL), neutralization of pseudovirus",[39],> 50 µg/mL
same,"IC50 (µg/mL), pseudovirus neutralization",[40],0.057 µg/mL
same,"IC50 (µg/mL), pseudovirus neutralization",[41],7.57 µg/mL
same,"IC50 (µg/mL), pseudovirus neutralization",[42],> 50 µg/mL
same,"IC50 (µg/mL), pseudovirus neutralization",[43],> 50 µg/mL
same,"IC50 (µg/mL), pseudovirus neutralization",[44],> 50 µg/mL
same,"IC50 (µg/mL), pseudovirus neutralization",[45],0.532 µg/mL
same,"IC50 (µg/mL), neutralization of pseudovirus",[46],> 50 µg/mL
same,"IC50 (µg/mL), neutralization of pseudovirus",[47],> 50 µg/mL
same,"IC50 (µg/mL), pseudovirus neutralization",[48],> 50 µg/mL
same,"IC50 (µg/mL), pseudovirus neutralization",[49],> 50 µg/mL
same,"IC50 (µg/mL), neutralization of pseudovirus",[50],0.113 µg/mL
same,"IC50 (µg/mL), pseudovirus neutralization",[51],1.07 µg/mL
same,"IC50 (µg/mL), pseudovirus neutralization",[52],> 50 µg/mL
same,"IC50 (µg/mL), pseudovirus neutralization",[53],> 50 µg/mL
same,"IC50 (µg/mL), pseudovirus neutralization",[54],> 50 µg/mL
same,"IC50 (µg/mL), pseudovirus neutralization",[55],6.95 µg/mL
same,"IC50 (µg/mL), pseudovirus neutralization",[56],0.319 µg/mL
same,"IC50 (µg/mL), neutralization of pseudovirus",[57],> 50 µg/mL
same,"IC50 (µg/mL), neutralization of pseudovirus",[58],> 50 µg/mL
same,"IC50 (µg/mL), pseudovirus neutralization",[59],> 50 µg/mL
same,"IC50 (µg/mL), pseudovirus neutralization",[60],0.57 µg/mL
same,"IC50 (µg/mL), pseudovirus neutralization",[61],> 50 µg/mL
same,"IC50 (µg/mL), pseudovirus neutralization",[62],0.017 µg/mL
same,"IC50 (µg/mL), neutralization of pseudovirus",[63],0.429 µg/mL
same,"IC50 (µg/mL), pseudovirus neutralization",[64],1.08 µg/mL
